Test results as given in US20230340132A1, “ANTI-ADENOSINE RECEPTOR (A2aR) ANTIBODIES” (NA Biotech Corp, priority 2020, published 2023).
“And” between values parts separate entries of the source, which are not always exact repeats. Equal values may be shown once. “Also recorded” adds a separate entry of the source.

Columns and labels:
[1] = target: T1, human adenosine receptor A2B (Homo sapiens, UniProt P29275); assay: flow cytometry-based cell-binding assay, HEK293T-A2B; conditions: duplicate
T1 construct: FLAG
T1 sequence (P29275 1-332): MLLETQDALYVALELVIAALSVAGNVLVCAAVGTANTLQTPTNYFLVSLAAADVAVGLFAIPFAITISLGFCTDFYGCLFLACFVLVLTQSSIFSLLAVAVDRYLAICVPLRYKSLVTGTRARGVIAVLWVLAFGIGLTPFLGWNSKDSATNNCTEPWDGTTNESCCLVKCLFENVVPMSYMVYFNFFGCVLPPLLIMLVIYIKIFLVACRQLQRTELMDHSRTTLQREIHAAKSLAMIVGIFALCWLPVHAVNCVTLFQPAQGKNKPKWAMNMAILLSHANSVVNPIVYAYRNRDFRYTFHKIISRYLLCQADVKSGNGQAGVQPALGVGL
Method: (§1) To test the specificity of the antigen binding molecules of the invention, e.g., anti-A2aR antibodies or antigen binding fragments thereof to human A2aR and not towards any of the other 3 adenosine receptor family members, a flow cytometry-based cell-binding assay was performed by Multispan Inc (Hayward, CA). HEK293T cells stably expressing various adenosine receptors, i.e., human A1R, A2bR, and A3R, and mouse A2R, generated by Multispan Inc and HEK293T parental cell lines were used in the assay. Briefly, adenosine receptor-overexpressing cell lines and HEK293T parental cell lines were incubated with 2, 10, and 50 nM of anti-human A2aR monoclonal antibodies (clones 1B5-3D7 and 3F6-9G5) and 10 and 50 nM of mouse IgG2a Isotype control at 4° C. in the dark for 60 minutes. Anti-FLAG antibody (Abcam, ab72469, 2 μg/mL) was used as positive control for cell lines over-expressing various adenosine receptors, respectively. After 3 washes with FACS buffer (PBS plus 0.1% BSA and 0.2% sodium azide), cells were stained with an anti-mouse-IgG-PE (Invitrogen, cat. P852) detection antibody for 45 minutes at 4° C. The cells were then washed 3 times with FACS buffer and analyzed on FACSort (Becton Dickinson). Data was analyzed using CellQuest Pro (Becton Dickinson).

[2] = target: T2, human adenosine receptor A3 (Homo sapiens, UniProt P0DMS8); assay: flow cytometry-based cell-binding assay, HEK293T-A3; conditions: duplicate
T2 construct: FLAG
T2 sequence (P0DMS8 1-318): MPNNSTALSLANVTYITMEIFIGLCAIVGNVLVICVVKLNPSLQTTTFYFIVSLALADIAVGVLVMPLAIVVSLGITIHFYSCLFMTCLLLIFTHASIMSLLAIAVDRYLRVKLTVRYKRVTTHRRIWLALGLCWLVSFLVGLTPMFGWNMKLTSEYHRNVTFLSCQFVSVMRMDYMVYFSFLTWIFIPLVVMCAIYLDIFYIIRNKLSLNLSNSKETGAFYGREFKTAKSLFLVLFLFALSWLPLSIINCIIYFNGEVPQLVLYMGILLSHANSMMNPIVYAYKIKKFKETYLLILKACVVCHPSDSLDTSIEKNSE
Method: as §1

[3] = target: T3, human A2aR (Homo sapiens, UniProt P29274); assay: FACS screening of hybridoma clones on human A2aR-expressing Expi293 cells; format: binding; conditions: antibodies from hybridoma clones
T3 construct: expressed in transfected cells; host or cells: Expi293
T3 sequence (P29274 whole entry): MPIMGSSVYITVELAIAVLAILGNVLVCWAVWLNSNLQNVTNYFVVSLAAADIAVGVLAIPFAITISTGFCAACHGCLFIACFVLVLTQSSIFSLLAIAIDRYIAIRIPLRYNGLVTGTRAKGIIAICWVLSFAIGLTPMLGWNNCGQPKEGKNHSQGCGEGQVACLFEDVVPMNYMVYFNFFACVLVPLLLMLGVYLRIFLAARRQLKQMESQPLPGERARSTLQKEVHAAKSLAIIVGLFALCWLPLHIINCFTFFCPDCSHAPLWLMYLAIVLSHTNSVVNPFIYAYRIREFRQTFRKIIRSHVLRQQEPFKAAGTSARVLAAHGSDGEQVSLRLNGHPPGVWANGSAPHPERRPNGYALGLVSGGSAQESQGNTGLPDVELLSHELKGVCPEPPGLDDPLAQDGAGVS
Method: (§2) Serum titration was performed using Fluorescence-Activated Cell Sorting (FACS) pursuant to standard procedures. Human A2aR-expressing Expi293 cells were first added to 96-well plate (1×10^5 cells per well), 50 μl of serial diluted serum (1:50, 1;150, 1:450, 1:[…], 1:12150) from each individual mouse was incubated with cells for 30 min. on ice. After washing with FACS buffer (2% Fetal bovine serum, 2 mM EDTA in PBS), Alex Fluor 647-conjugated anti mouse IgG was added and incubated for 20 min on ice. Cells were resuspending with 100 μl FACS buffer after two times wash and ready for FACS analysis (BD LSR II Flow Cytometer, HTS). […] (MFI: mean fluorescence intensity).
(§3) Primary screening of the hybridoma supernatants in the 96-well plates was performed using the same FACS procedure as described for serum titration except following changes: 1) Human A2aR-expressing Expi293 cells (expressing GFP) were mixed at 1:1 ratio with parental Expi293 (no A2aR expression) and added to 96-well plates (2×10^5 cells per well), 2) 50 μl hybridoma supernatant transferred from each well of 96-well plates was incubated with cells for 30 min. on ice.
(§4) Sub-cloning was performed by limiting dilution method. In short, the positive wells identified by FACS were seeded into 96-well plate at an average density of 1 cell/well. The […] was placed in incubator for 7-10 days to allow the growth of the cells. The growth of cells was monitored periodically. At about day 4, the wells on the plate were observed under phase contrast microscopy and the wells which appeared to have single colony growing (i.e., only one clumping of hybridomas) were recorded. The cells from the single colony wells were screed by FACS using the same procedure as described for primary screening of hybridoma when the confluence of the cell reached about 50%.

[4] = target: T4, mouse adenosine receptor A2A (Mus musculus, UniProt Q60613); assay: flow cytometry-based cell-binding assay, HEK293T-mA2A; conditions: duplicate
T4 construct: FLAG
T4 sequence (Q60613 whole entry): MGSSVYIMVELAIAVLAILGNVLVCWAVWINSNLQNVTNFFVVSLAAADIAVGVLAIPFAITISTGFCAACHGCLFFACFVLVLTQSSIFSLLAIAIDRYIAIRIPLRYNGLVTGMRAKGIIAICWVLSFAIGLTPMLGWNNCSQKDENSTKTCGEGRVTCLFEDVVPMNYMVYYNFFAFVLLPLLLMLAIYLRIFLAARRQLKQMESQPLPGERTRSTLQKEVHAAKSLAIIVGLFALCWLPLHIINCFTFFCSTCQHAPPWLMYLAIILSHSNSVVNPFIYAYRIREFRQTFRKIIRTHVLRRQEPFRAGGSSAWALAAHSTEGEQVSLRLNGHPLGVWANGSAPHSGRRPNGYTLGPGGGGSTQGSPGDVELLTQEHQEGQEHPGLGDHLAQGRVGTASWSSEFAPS
Method: as §1

[5] = target: T3, human A2aR; assay: FACS binding titration on hA2aR-Expi293 cells; conditions: 12-point 1:2 serial dilution starting from 7.5 ug/ml
Method: (§5) Human A2aR-expressing Expi293 cells or parental Expi293 cells were first added to 96-well plate (1×10^5 cells per well). Fifty microliters (50 μl) of 12-point 1:2 serial diluted samples starting from 7.5 ug/ml for each antibody was incubated with cells for 30 minutes on ice. After being washed with FACS buffer (2% Fetal bovine serum in DPBS), […] of Alex Fluor 633-conjugated anti mouse IgG (Life technology, Cat.A21050) or Alex Fluor 647-conjugated anti-human IgG was added and incubated for 30 minutes on ice. Cells were resuspended with 100 μl of FACS buffer after two washes. One hundred microliters 100 μl of 1:50 diluted 7-AAD for live/dead staining was added to the cell suspension, which was ready for FACS analysis (BD Accuri C6 plus or LSR II Flow Cytometer, HTS).

[6] = tested on: parental Expi293 cells; assay: FACS binding titration on parental Expi293 cells; conditions: 12-point 1:2 serial dilution starting from 7.5 ug/ml
Method: as §5

[7] = tested on: parental Expi293 cells; assay: FACS screening of hybridoma clones on parental Expi293 cells; format: binding; conditions: antibodies from hybridoma clones
Method: as §2, §3, §4

B1: anti-human A2aR monoclonal antibody 1B5-3D7 (antibody, V domains shown)
VH: QVQLQQPGTELVKPGAPVKLSCKTSGFTFTRFWMNWVRQRPGRGLEWIGRIDPYDSETQYNHKFWDRATLTVDKSSSTVYIQLSSLTSEDSAVYYCGRSLYGKGDYWGQGTTLTVSS
VL: DVLMTQSPLSLPVSLGDQASISCRSSQSIVHSNGNTYLEWYLQRPGQSPKLLIYKVSNRFSGVPDRFSGSGSGTYFTLRISRVEAEDLGIYYCFQGSHVPLTFGSGTTLELK
notes: Tested as whole mouse IgG2a / kappa, purified from hybridoma supernatant or made recombinantly in Expi293 cells; also called 1B-3D7
Geo Mean ([1]; 2 nM): 5.42 and 3.8 | Geo Mean ([1]; 50 nM): 3.42 and 2.79 | Geo Mean ([2]; 2 nM): 2.11 and 2.09 | Geo Mean ([2]; 10 nM): 2.23 and 2.32 | Geo Mean ([2]; 50 nM): 2.45 and 2.3 | binding to human A2aR-expressing cells (FIG. 2) [3]: specific binding | Geo Mean ([4]; 2 nM): 2.96 and 3.82 | Geo Mean ([4]; 10 nM): 4.13 and 6.16 | Geo Mean ([4]; 50 nM): 3.48 and 6.03 | binding to hA2aR-Expi293 (FIG. 5) [5]: strong dose-dependent specific binding; also recorded: specifically binds | binding to parental Expi293 (FIG. 5) [6]: not to parental Expi293 | binding to parental Expi293 cells (FIG. 2) [7]: not to parental Expi293 cells

B2: 3F6-9G5: anti-human A2aR monoclonal antibody from mouse hybridoma clone; HCVR SEQ ID NO: 36, LCVR SEQ ID NO: 42 (antibody, V domains shown)
VH: QVQLQQPGTELVKPGAPVRLSCKASGFAFTSYWMNWVRQRPGRGLEWIGRIDPSDSEAHYHHKFWGKATLTVDKSSSTVYIQLNGLTSEDSAVYYCLRSLYGKGDYWGHGTTLTVSS
VL: DVLMTQTPLSLSVRLGDQASISCRSSQSLVHRNGNTYLEWYLQRPGQSPKLLIYKVSNRFSGVPDRFSGSGSGTDFTLKISRVEAEDLGVYYCYQGSHVPLTFGSGTKLEIK
Geo Mean ([1]; 2 nM): 3.13 and 2.8 | Geo Mean ([1]; 50 nM): 7.27 and 3.74 | Geo Mean ([2]; 2 nM): 2.07 and 1.96 | Geo Mean ([2]; 10 nM): 2.49 and 2.33 | Geo Mean ([2]; 50 nM): 2.66 and 2.25 | binding to human A2aR-expressing cells (FIG. 2) [3]: specific binding | Geo Mean ([4]; 2 nM): 2.9 and 3.08 | Geo Mean ([4]; 10 nM): 3.7 and 3.25 | Geo Mean ([4]; 50 nM): 4.98 and 4.76 | binding to hA2aR-Expi293 (FIG. 5) [5]: strong dose-dependent specific binding; also recorded: specifically binds | binding to parental Expi293 (FIG. 5) [6]: not to parental Expi293 | binding to parental Expi293 cells (FIG. 2) [7]: not to parental Expi293 cells
